In paper PMC11813584, “An odorant-binding protein functions in fire ant social immunity interfacing with innate immunity” (Open Biology, 2025):

Target: T1, SiOBP15, purified, His-tag removed (Solenopsis invicta)
T1 construct: the ORF cloned into pET28a; also called purified SiOBP15; SiOBP15 protein (ligand); source: E. coli BL21, purified (Ni-Sepharose Cl-6B agarose), His-tag removed by protease cleavage
Assay: SPR; open SPR; SiOBP15 coupled to a COOH chip until saturation, SiApoLp-III or SiFABP5 titrated as analyte; one-to-one model (TraceDrawer)
Conditions: both partners purified

B1: SiApoLp-III, purified, His-tag removed (natural protein)
chain: EQSGTQPQLSDYIRDAQTAISSLGTQIQEHLNLPNQEELANTFKEQSTNFANNVQAYLQNITDEVKAKSPELEDFWTNMKTKLSEAVDNLHINPETTEQVNQLRAKFQEGVQTLVTESENAAKTISENSGKVQESIAKITKQAIDIAVKASQNLNQQLQQATTPQP
Kd: 713 nM
